Laboratory results reported in paper PMC5318940.

Columns and labels:
[1] = molecular target: histone H2A (bovine (calf thymus)) (UniProt P0C0S9)
[2] = molecular target: M1 protein on the surface of live GAS M1T1 5448 wild type (group A Streptococcus (endogenous in strain M1T1 5448)) (UniProt Q99XV0); assay: immunogold transmission electron microscopy; bacteria with 31.25 μg/mL histone H2A, 30 min at 37 °C, washed, fixed with 2% PFA; anti-histone H2A antibody and 15 nm immunogold secondary antibody; particles counted on >20 bacteria

Substance	histone MIC for the GAS Δemm1 mutant with exogenous 10 μM recombinant NT fragment (rNT) [1] [fold]	gold particles per bacterium (gold-particles per bacterium) [2]
M1 protein fragment A+B (residues 42-194), recombinant NT fragment (from UniProt Q99XV0 42-194) (domain or fragment)	2	
histone H2A (from UniProt P0C0S9 1-130) (natural protein)		> 30
